Measurements as given in CN114874324A (dated 2022).
Values belong to the binder of their own block, whether it stands above or below them.

What was measured:
[1] = molecular target: T1, 可溶性LAG-3蛋白标准品(R&D Systems) (human, UniProt P18627 23-450, limits assumed); assay: sandwich ELISA of the kit (4F4 and 4E12 as the antibody pair)
T1 construct: also called sLAG-3蛋白; sLAG-3
T1 sequence (looked up): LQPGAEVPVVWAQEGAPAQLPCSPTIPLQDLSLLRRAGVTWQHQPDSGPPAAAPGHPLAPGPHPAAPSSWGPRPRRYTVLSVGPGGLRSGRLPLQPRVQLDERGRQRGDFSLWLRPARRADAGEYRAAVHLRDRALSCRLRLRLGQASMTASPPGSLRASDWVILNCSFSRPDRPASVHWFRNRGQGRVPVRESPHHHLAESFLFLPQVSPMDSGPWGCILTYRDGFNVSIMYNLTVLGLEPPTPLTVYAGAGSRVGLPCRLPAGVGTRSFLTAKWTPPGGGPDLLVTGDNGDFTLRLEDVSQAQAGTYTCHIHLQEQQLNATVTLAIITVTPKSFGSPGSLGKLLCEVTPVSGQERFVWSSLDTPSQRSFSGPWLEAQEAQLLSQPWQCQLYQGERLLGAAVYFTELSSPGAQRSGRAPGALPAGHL

[2] = molecular target: T1, 可溶性LAG-3蛋白标准品(R&D Systems); assay: sandwich ELISA, wells pre-coated with 4E12

- binding result [1]: binds
B1: LAG-3-4F4抗体 (antibody, V domains shown)
VH: QLQLKESGPEVVRPGVSVKISCKGSGYTFTDYAMYWVKQSHAKSLEWIGVISTYNGNTNYNQRFKGKATMTVDKSSSTAYMELARLTSEDSAIYYCARERGAMDYWGQGTSVTVSS
VL: DVLMTQTPLSLPVSLGDQASISCRSSQSIVHNNGNTYLEWYLQKPGQSPKLLIYKVSSRFSGVPDRFSGSGSGTDFTLKISRVEAEDLGIYYCFQGSHVPPTFGGGTKLEIK
notes: Mouse (BALB/c) hybridoma monoclonal antibody; also called 抗人LAG-3-4F4单克隆抗体; LAG-3包被抗体

- binding result [2]: binds
B2: LAG-3-4E12抗体 (antibody, V domains shown)
VH: EVKLVESGGGLVQPGGSLKLSCAVSGFAIRSYDMSWVRQTPEKRLEWVATISSGGSYSYYPDSVKGRFTISRDNARNTLYLQMSSLRSEDTALYYCASLSTAPAYWGQGTLVTVSA
VL: DIVMTQSQKFMSTSVGDRVSVTCKASQNVGTNVAWYQQKPGQSPKALIYSASYRYSGVPDRFTGSGSGTDFTLTISNVQSEDLAEYFCQQYNTYPHMYTFGGGTKLEIK
notes: Mouse (BALB/c) hybridoma monoclonal antibody; also called LAG-3-4E12单克隆抗体; 抗LAG-3单抗(克隆:4E12)
